Results on two molecules are retold here after paper PMC3488048 (The Journal of Biological Chemistry, 2012).

This assay deals with Kindlin-3 (full-length, C-terminal His6 tag removed, for NMR) (mouse, UniProt Q8K1B8 1-665). Kind of assay: NMR titration.

Where no end group is shown, it is not given here.

Usually Kd stands for a measure of binding affinity in units of concentration. A higher Kd goes with weaker binding.

Chain of Kindlin-3 (full-length, C-terminal His6 tag removed, for NMR) (Q8K1B8 whole entry): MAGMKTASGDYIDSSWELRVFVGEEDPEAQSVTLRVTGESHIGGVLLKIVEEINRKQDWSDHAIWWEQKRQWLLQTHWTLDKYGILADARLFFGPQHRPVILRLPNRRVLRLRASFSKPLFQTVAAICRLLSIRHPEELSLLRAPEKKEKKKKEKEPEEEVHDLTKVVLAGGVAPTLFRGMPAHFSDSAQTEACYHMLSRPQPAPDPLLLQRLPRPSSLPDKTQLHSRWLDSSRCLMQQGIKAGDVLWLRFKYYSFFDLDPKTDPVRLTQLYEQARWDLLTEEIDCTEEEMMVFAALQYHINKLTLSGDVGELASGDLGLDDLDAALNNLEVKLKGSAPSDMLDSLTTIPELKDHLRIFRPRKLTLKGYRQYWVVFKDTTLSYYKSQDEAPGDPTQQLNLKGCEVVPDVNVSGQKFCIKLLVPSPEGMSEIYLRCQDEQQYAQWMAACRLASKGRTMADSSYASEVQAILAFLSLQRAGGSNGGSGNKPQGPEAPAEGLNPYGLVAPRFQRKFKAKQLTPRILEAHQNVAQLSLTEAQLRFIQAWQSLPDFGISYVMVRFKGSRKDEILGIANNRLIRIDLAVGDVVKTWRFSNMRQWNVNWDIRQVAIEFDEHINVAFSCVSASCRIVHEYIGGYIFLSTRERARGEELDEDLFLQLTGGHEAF

KLLMIIHDRREFAKFEKEKMNAKWDTGENPIYKSAVTTVVNPKYEGK (domain or fragment, UniProt P05556-1 752-798, looked up, also: uniformly 15N-labelled) [integrin β1A cytoplasmic tail] showed a Kd of around 50 µM.

As for KLLMIIHDRREFAKFEKEKMNAKWDTQENPIYKSPINNFKNPNYGRKAGL (domain or fragment, UniProt P05556-5 752-801, looked up, also: uniformly 15N-labelled) [integrin β1D cytoplasmic tail], the Kd was around 50 µM.
